From the Immune Epitope Database (IEDB)

Experiments:
Experiment in all cases: IEDB peptide-MHC binding, purified MHC/competitive/radioactivity; ≥ and ≤ were set here for values at or beyond the usual limits of such assays
Conditions in all cases: source organism: Bordetella pertussis
HLA-B*57:01 = molecular target: HLA-B*57:01
HLA-B*53:01 = molecular target: HLA-B*53:01
HLA-B*44:03 = molecular target: HLA-B*44:03
HLA-B*07:02 = molecular target: HLA-B*07:02

Row | Sequence | IC50 (HLA-B*53:01) | IC50 (HLA-B*07:02) | other results
1 | RASASRARI |  |  | IC50 (HLA-B*57:01): ≥ 70.4 µM
2 | SGEGRVNIG | 3.18 µM |  | 
3 | AQGKALLYR |  |  | IC50 (HLA-B*44:03): ≥ 70.1 µM
4 | VVETAQPLP | 69.9 µM |  | 
5 | MHTIASILL | 7.4 µM |  | 
6 | WTFHAGYRY |  |  | IC50 (HLA-B*57:01): 1.4 µM
7 | PASANTLLL |  | 15.7 µM | 
8 | GATRAVDSL |  | 69.6 µM | 
9 | RVAPPAVAL |  | 0.349 µM | 
